B1: human DUSP13 protein (protein)
chain: MDSLQKQDLRRPKIHGAVQASPYQPPTLASLQRLLWVRQAATLNHIDEVWPSLFLGDAYAARDKSKLIQLGITHVVNAAAGKFQVDTGAKFYRGMSLEYYGIEADDNPFFDLSVYFLPVARYIRAALSVPQGRVLVHCAMGVSRSATLVLAFLMICENMTLVEAIQTVQAHRNICPNSGFLRQLQVLDNRLGRETGRF
Sequence of Akt1 (P31749 whole entry): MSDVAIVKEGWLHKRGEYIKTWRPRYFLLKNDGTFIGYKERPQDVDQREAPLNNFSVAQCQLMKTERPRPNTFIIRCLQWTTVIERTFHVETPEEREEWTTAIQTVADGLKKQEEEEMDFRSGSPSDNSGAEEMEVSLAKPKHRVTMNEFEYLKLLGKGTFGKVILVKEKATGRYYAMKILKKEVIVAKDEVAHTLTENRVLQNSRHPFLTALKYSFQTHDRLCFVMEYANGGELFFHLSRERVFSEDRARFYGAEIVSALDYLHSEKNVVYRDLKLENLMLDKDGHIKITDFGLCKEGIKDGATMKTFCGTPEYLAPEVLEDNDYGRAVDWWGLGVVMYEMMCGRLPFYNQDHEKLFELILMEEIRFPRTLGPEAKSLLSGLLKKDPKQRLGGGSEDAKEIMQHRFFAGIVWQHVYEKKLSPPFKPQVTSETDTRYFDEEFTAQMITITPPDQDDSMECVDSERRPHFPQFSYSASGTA
In the case of B1, the “dephosphorylation of phosphorylated Ser-473 (FIG. 15, right, second panel from the top)” value (Akt1) is reported as “directly dephosphorylates the phosphorylated Ser-473 thereof” and the “dephosphorylation of phosphorylated Ser-473 (FIG. 15, right, second panel from the top)” value (Akt2) is reported as “directly dephosphorylates the phosphorylated Ser-473 thereof”.
